From paper PMC5887453 (Nucleic Acids Research, 2018)

Target: T1, Pyrococcus horikoshii elongation factor 2 (PhoEF-2), wild type (Pyrococcus horikoshii, UniProt O59521 1-732)
T1 sequence (looked up): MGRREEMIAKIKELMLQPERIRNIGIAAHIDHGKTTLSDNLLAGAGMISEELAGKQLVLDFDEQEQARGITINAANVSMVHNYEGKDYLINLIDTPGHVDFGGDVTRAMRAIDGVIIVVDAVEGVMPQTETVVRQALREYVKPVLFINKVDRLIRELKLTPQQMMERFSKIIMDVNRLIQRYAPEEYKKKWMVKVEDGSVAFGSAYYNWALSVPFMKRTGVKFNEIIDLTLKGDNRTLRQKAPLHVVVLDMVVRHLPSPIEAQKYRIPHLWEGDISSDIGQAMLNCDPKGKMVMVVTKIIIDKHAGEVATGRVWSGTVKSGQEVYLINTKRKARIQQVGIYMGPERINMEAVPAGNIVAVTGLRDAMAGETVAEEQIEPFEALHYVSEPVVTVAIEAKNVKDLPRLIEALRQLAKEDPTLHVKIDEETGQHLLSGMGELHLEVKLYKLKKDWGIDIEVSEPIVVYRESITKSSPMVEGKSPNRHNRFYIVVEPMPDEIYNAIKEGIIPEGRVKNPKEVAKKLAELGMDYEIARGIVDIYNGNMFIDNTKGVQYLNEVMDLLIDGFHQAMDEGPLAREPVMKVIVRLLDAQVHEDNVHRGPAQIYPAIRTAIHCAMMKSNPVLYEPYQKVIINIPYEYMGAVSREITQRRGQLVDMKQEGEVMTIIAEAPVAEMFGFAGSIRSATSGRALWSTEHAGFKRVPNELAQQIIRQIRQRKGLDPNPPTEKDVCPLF
Experiment: crystal structure

binding result: binds
Binder: EALAGLSALFG [P1C11, peptide of the 11 C-terminal amino acids of P. horikoshii P1 (E98-G108)]
